The target of assay [1] is T1, huCD33-G69 stably expressed on Jurkat cells (human, UniProt P20138 18-364).
T1 construct: whole, on cells; >200,000 receptors per cell; also called CD33 Mutant; CD33 R69G
The experiment in a line: FACS on cells.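 Further: fixed Jurkat cells bearing either CD33 variant, barcoded by dye, exposed to myc-tagged scFv periplasmic extracts, detected with anti-myc PE antibody and read by flow cytometry.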

Assay [2] deals with T2, huCD33-R69 stably expressed on Jurkat cells (human, UniProt P20138 18-364).
T2 construct: whole, on cells; >200,000 receptors per cell; also called CD33 WT; CD33^ARG69
Description: FACS on cells.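 Further: fixed Jurkat cells bearing either CD33 variant, barcoded by dye, exposed to myc-tagged scFv periplasmic extracts, detected with anti-myc PE antibody and read by flow cytometry.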

For assay [3], the target named is T3, huCD33-R69-His recombinant protein (human, UniProt P20138 18-259).
T3 construct: extracellular domain
The experiment in a line: BLI.

Assay [4] deals with T4, huCD33-G69-Fc recombinant protein (human, UniProt P20138 18-259).
T4 construct: extracellular domain; also called CD33 R69G
The experiment in a line: BLI. In general terms: Biolayer interferometry detects binding as a change in optical thickness at a sensor tip.
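Wherever result is given: scFvs from periplasmic extracts captured on biosensors via anti-V5 antibody, exposed to recombinant huCD33 variants for 2 min, 5 min dissociation, scored as binding, no binding or ambiguous.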

T2 sequence (P20138 18-364): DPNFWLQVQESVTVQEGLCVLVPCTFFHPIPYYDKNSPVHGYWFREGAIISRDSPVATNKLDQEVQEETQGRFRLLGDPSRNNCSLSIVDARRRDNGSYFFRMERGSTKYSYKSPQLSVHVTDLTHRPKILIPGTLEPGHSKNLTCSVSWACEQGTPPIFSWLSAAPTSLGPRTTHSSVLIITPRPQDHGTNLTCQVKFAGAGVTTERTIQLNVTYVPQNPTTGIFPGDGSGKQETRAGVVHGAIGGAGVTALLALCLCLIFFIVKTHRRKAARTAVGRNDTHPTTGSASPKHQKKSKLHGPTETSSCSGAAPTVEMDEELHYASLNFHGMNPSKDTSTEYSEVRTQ
T4 sequence (P20138 18-259 R69G): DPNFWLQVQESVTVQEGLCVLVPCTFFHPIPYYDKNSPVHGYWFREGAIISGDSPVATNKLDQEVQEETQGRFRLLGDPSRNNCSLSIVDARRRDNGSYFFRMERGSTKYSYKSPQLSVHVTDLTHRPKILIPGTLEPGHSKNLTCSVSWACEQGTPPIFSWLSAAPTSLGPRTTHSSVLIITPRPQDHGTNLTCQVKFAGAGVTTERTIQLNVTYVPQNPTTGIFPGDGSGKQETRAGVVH
T3 sequence (P20138 18-259): as the sequence (P20138 18-259 R69G) above, with G52R counted along it
T1 sequence (P20138 18-364 R69G): as the sequence (P20138 18-364) above, with R52G counted along it

B1: Polypeptide No. 41 (scFv, V domains shown)
VH: QVQLVQSGAEVKKPGASVKVSCKASGYTFPNYGISWVRQAPGQGLEWMGWINPNSGGTKYAQRFQGRVTMTRDTSTSTVYMELSSLRSEDTAVYYCARDRDILTGYYHFDYWGQGTLVTVSS
VL: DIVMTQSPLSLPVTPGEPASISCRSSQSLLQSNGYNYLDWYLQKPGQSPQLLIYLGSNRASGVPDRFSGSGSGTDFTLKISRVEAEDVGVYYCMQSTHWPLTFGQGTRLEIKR
notes: scFv
As to B1, the “geometric mean MFI fold change over Jurkat parental” value (“geometric mean MFI fold change” for short) in assay [1] is 2 to 10 fold; in assay [2] it was less than 2 fold. Further, the binding result in assay [3] is given as “no binding”; in assay [4], “binds”.

B2: Polypeptide No. 31 (scFv, V domains shown)
VH: QVQLVQSGAEVKKPGSSVKVSCKASGGTFSTYAITWVRQAPGQGLEWMGGIIPIVGRANYAQKFQGRVTITADESTSTAYMELSSLRSEDTAVYYCARSGGHDLDYWGQGTLVTVSS
VL: DIQMTQSPSSLSASVGDRVTITCRASQGIGNDLGWYQQKPGKAPKLLIYGASSVQSGVPSRFSGSGSGTDFTLTISSLQPEDFATYYCQQSYSTPITFGQGTRLEIKR
notes: scFv
Take B2: the entries for the “geometric mean MFI fold change” value in assay [1] and in assay [2] were 10 to 30 fold and less than 2 fold, respectively. Also, the binding result in assay [3] is given as “no binding”; in assay [4], “binds”.

B3: Polypeptide No. 42 (scFv, V domains shown)
VH: QVQLVQSGAEVKKPGASVKVSCKASGYTFTDYFMHWVRQAPGQGLEWMGWINPNSGNTGYAQKFQGRVTMTRDTSTSTVYMELSSLRSEDTAVYYCARLNDYGDYGGPATLDYWGQGTLVTVSS
VL: DIQMTQSPSSLSASVGDRVTITCRASQGISNNLNWYQQKPGKAPKLLIYAASSLQSGVPSRFSGSGSGTDFTLTISSLQPEDFATYYCQQSYSTPPTFGQGTKLEIKR
notes: scFv
B3: the “geometric mean MFI fold change” value is 10 to 30 fold in assay [1] and less than 2 fold in assay [2]. The binding result in assay [3] was “no binding”; in assay [4], “binds”.

B4: Polypeptide No. 35 (scFv, V domains shown)
VH: QVQLVQSGAEVKKPGASVKVSCKASGYTFTDYYMHWVRQAPGQGLEWMGIINPSGGSTRYAQKFQGRVTMTRDTSTSTVYMELSSLRSEDTAVYYCARVDGRRWLRSDYWGQGTLVTVSS
VL: DIQMTQSPSSLSASVGDRVTITCRASQGIRNDLAWYQQKPGKAPKLLIYAASTLQNGVPSRFSGSGSGTDFTLTISSLQPEDFATYYCQQSYSTPWTFGQGTKVEIKR
notes: scFv
With B4, the “geometric mean MFI fold change” value was 2 to 10 fold in assay [1] and less than 2 fold in assay [2]. Moreover, the binding result in assay [3] is reported as “no binding”; in assay [4] it was “binds”.

B5: Polypeptide No. 29 (scFv, V domains shown)
VH: QVQLVQSGAEVKKPGASVKVSCKASGYTFTGYYLHWVRQAPGQGLEWMGVINVRRGSTRYAQNFQGRVTMTRDTSTSTVYMELSSLRSEDTAVYYCARVSGSYYQPWGQGTLVTVSS
VL: DIQMTQSPSSLSASVGDRVTITCRASQSISRWLAWYQQKPGKAPKLLIYDASNLETGVPSRFSGSGSGTDFTLTISSLQPEDFATYYCQQGNSFPPIFGGGTKVEIKR
notes: scFv
Take B5: the results for the “geometric mean MFI fold change” value in assay [1] and in assay [2] were 2 to 10 fold and less than 2 fold, respectively. For the same molecule, the binding result in assay [3] was “no binding”; in assay [4] it was “binds”.

B6: Polypeptide No. 33 (scFv, V domains shown)
VH: QVQLVQSGAEVKKPGASVKVSCKASGYTFTSYYMHWVRQAPGQGLEWMGIIDPSGGSTNYAQKFQGRVTMTRDTSTSTVYMELSSLRSEDTAVYYCARDYYGSGSYYGLDYWGRGTLVTVSS
VL: DIQMTQSPSSLSASVGDRVTITCRASQGISNNLNWYQQKPGKAPKLLIYDASNLETGVPSRFSGSGSGTDFTLTISSLQPEDFATYYCQQANSFPLTFGPGTKVDIKR
notes: scFv
Consider B6, for which the results for the “geometric mean MFI fold change” value in assay [1] and in assay [2] were greater than 30 fold and less than 2 fold, respectively. Moreover, the binding result in assay [3] is on record as “no binding”; in assay [4], “binds”.

B7: Polypeptide No. 39 (scFv, V domains shown)
VH: EVQLLESGGGLVQPGGSLRLSCAASGFTFRNYGMGWVRQAPGKGLEWVSAISGSGGSTYYADSVKGRFTISRDNSKNTLYLQMNSLRAEDTAVYYCARVKFYGMDVWGQGTTVTVSS
VL: DIQMTQSPSSLSASVGDRVTITCRASQGISNDLAWYQQKPGKAPKLLIYGASNLETGVPSRFSGSGSGTDFTLTISSLQPEDFATYYCQQANSFPFTFGPGTKVDIKR
notes: scFv
B7: the “geometric mean MFI fold change” value is 10 to 30 fold in assay [1] and less than 2 fold in assay [2]. The binding result in assay [3] was “no binding”; in assay [4], “binds”.

B8: Polypeptide No. 32 (scFv, V domains shown)
VH: EVQLLESGGGLVQPGGSLRLSCAASGFTFSSYGMHWVRQAPGKGLEWVSSISGSGDTTYYADSVKGRFTISRDNSKNTLYLQMNSLRAEDTAVYYCARDNPYGDYGGSFDYWGQGTLVTVSS
VL: EIVMTQSPATLSVSPGERATLSCRASQSVSSSYLAWYQQKPGQAPRLLIYATSTRATGIPARFSGSGSGTEFTLTISSLQSEDFAVYYCQQYGSLPLTFGQGTKVEIKR
notes: scFv
On to B8, for which the “geometric mean MFI fold change” value in assay [1] is 10 to 30 fold; in assay [2] it was less than 2 fold. The binding result in assay [3] is on record as “no binding”; in assay [4] it was “binds”.

B9: Polypeptide No. 40 (scFv, V domains shown)
VH: QVQLVQSGAEVKKPGASVKVSCKASGYTFTDYHMHWVRQAPGQGLEWMGWMSPNSGNTGYAQNFQGRVTMTRDTSTSTVYMELSSLRSEDTAVYYCARADYYGSDYVKFDYWGQGTLVTVSS
VL: DIQMTQSPSSLSASVGDRVTITCRVSQGISSYLNWYQQKPGKAPKLLIYEASTLESGVPSRFSGSGSGTDFTLTISSLQPEDFATYYCQQGYSTPPTFGQGTKVEIKR
notes: scFv
With B9, the “geometric mean MFI fold change” value is 10 to 30 fold in assay [1] and less than 2 fold in assay [2]. The values for the binding result in assay [3] and in assay [4] were “no binding” and “binds”, respectively.

B10: Polypeptide No. 36 (scFv, V domains shown)
VH: QVQLVQSGAEVKKPGASVKVSCKASGGTFSSYAISWVRQAPGQGLEWLGIISPSGRSAGYGRKFQGRVTMTRDTSTSTVYMELSSLRSEDTAVYYCARTDYGGHKWYFDLWGRGTLVTVSS
VL: DIQMTQSPSSLSASVGDRVTITCQASQGINNYLNWYQQKPGKAPKLLIYAASTLQRGVPSRFSGSGSGTDFTLTISSLQPEDFATYYCQQSYQTPLTFGGGTKVEIKR
notes: scFv
Regarding B10, the “geometric mean MFI fold change” value in assay [1] is 2 to 10 fold; in assay [2] it was less than 2 fold. Moreover, the binding result is reported as “no binding” in assay [3] and “binds” in assay [4].

The values are drawn from patent US20240101668A1 (WUGEN, published 2024).
